Source: PMC6325061

Target: phytochrome B (PhyB), amino acids 1-651, biotinylated (Arabidopsis thaliana) (UniProt P14713)
UniProt P14713, sequence (P14713 1-651): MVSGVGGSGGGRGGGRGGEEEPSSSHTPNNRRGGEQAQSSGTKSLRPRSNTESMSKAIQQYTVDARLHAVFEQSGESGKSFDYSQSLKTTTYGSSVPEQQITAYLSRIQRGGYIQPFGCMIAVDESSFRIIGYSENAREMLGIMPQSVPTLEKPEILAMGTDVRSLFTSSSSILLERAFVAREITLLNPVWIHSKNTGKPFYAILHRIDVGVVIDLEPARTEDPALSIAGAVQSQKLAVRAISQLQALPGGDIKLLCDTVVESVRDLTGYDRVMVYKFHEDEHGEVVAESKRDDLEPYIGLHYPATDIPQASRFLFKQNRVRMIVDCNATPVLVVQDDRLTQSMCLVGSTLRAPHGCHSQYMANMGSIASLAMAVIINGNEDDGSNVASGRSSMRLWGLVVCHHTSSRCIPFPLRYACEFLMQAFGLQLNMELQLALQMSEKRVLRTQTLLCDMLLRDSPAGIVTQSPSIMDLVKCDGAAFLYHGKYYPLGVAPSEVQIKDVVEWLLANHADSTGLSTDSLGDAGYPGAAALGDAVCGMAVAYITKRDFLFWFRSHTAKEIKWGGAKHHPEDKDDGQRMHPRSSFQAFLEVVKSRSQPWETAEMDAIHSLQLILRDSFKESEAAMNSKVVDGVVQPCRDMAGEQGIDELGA

cells with paxillin clustering at the cellular periphery, HeLa stably expressing OptoIntegrin on PhyB (1–651)-coated glass, constant 660 nm light: 80 % of cells
cells with paxillin clustering at the cellular periphery, HeLa stably expressing OptoIntegrin on PhyB (1–651)-coated glass, treated with far-red (740 nm) light: 20 % of cells
cells with paxillin clusters at the edges, HEK-293T stably expressing OptoIntegrin on PhyB (1–651)-coated glass, constant 660 nm light: 55 % of cells
cells with paxillin clusters, HEK-293T stably expressing OptoIntegrin on PhyB (1–651)-coated glass, 1.5 h 660 nm then switched to 740 nm for 0.5 h: 40 % of cells
Substance: OptoIntegrin: human integrin αVβ3 with PIF^S inserted between Met180 and Lys181 of the β subunit (construct pJB005) (from UniProt Q8L5W7 1-100; P06756 31-1048) (receptor)
